Laboratory results: article PMC3293417 (Nature Communications, 2012)
Blank lines part the entries; values can stand above or below the molecule they belong to.

B1: Beclin 1 coiled coil (CC) domain (residues 174–266), wild type, untagged (domain or fragment)
chain: DSEQLQRELKELALEEERLIQELEDVEKNRKVVAENLEKVQAEAERLDQEEAQYQREYSEFKRQQLELDDELKSVENQMRYAQMQLDKLKKTN
B2: CC region of mouse UVRAG (residues 228–298) (domain or fragment)
chain: TSNELKKESECLRLKILVLRNELERQKKALGREVAFLHKQQMALQDKGSAFSTEHGKLQLQKDSLSELRKE
B3: CC region of rat Atg14L (residues 88–178) (domain or fragment)
chain: KQEEFQKEVLKAMEGKRLTDQLRWKIMSCKMRIEQLKQTICKGNEEMKKNSEGLLKNKEKNQKLYSRAQRHQEKKEKIQRHNRKLGDLVEK

Tests used:
[1] = target: CC region of mouse UVRAG (residues 228–298) (mouse) (UniProt Q8K245); test: ITC
ITC = target: the molecule itself; test: ITC
[2] = target: B3; test: ITC
[3] = target: B2; test: ITC
[4] = target: B1; test: ITC
[5] = target: Beclin 1 CC domain MutM L178A/L192A (rat, UniProt Q91XJ1 174-266, L178A | L192A); test: ITC
[6] = target: Beclin 1 CC domain MutStab E224L (rat, UniProt Q91XJ1 174-266, E224L); test: ITC
[7] = target: Beclin 1 CC domain MutM L178A/L259A (rat, UniProt Q91XJ1 174-266, L178A | L259A); test: ITC
[8] = target: Beclin 1 CC domain MutM L178A/L196A (rat, UniProt Q91XJ1 174-266, L178A | L196A); test: ITC
AUC = target: the molecule itself; test: AUC

Chain of Beclin 1 CC domain MutM L178A/L259A (Q91XJ1 174-266 L178A/L259A): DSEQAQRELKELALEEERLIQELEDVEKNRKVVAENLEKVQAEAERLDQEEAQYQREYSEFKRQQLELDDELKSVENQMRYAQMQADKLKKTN

Kd [1]: 2.24 µM
Molecule: Beclin 1 CC domain MutM L178A/L192A (from UniProt Q91XJ1 174-266) (domain or fragment)

Kd [1]: 1.14 µM
Molecule: Beclin 1 CC domain MutM L178A/L196A (from UniProt Q91XJ1 174-266) (domain or fragment)

Kd [1]: 0.07 µM
Molecule: Beclin 1 CC domain MutM L178A/L259A (from UniProt Q91XJ1 174-266) (domain or fragment)

Kd [1]: 1.44 µM
stoichiometry N [1]: 1
Molecule: Beclin 1 CC domain MutStab A217L/E224L (from UniProt Q91XJ1 174-266) (domain or fragment)

Kd [1]: 4.24 µM
Molecule: Beclin 1 CC domain MutStab A217L/E224L/A255L (from UniProt Q91XJ1 174-266) (domain or fragment)

Kd [1]: 1.13 µM
Molecule: Beclin 1 CC domain MutStab E189L (from UniProt Q91XJ1 174-266) (domain or fragment)

Kd [1]: 8.7 µM
Molecule: Beclin 1 CC domain MutStab E189L/A217L/E224L/A255L (from UniProt Q91XJ1 174-266) (domain or fragment)

Kd [1]: 1.31 µM
stoichiometry N [1]: 1
Molecule: Beclin 1 CC domain MutStab E189L/A255L (from UniProt Q91XJ1 174-266) (domain or fragment)

Kd [1]: 2.43 µM
Molecule: Beclin 1 CC domain MutStab E224L (from UniProt Q91XJ1 174-266) (domain or fragment)

Molecule: B1
Kd (ITC): ~89 µM
stoichiometry N [2]: 1
stoichiometry N [3]: 1

Molecule: B2
Kd [4]: 0.24 ± 0.06 µM

Molecule: B3
Kd [5]: 4.61 ± 0.5 µM
Kd [6]: 8.85 ± 0.4 µM
Kd [4]: 3.22 ± 0.95 µM
Kd [7]: 1.2 ± 0.13 µM
Kd [8]: 6.85 ± 0.84 µM

B4: Beclin 1 CC domain MutStab E189L/A217L/E224L/A255L (domain or fragment)
chain: DSEQLQRELKELALELERLIQELEDVEKNRKVVAENLEKVQAELERLDQELAQYQREYSEFKRQQLELDDELKSVENQMRYLQMQLDKLKKTN
stoichiometry N (AUC): 4
